Experimental data from the supplement of paper PMC10567573.

B1: LOXL2 (parent)
chain: RLLRFSSQIHNNGQSDFRPKNGRH

Variants of: B1
Assay: protein stability index of a GFP-peptide fusion (GPS, HEK-293T) (PSI 1-6); higher = more stable
Details: c terminus: a fixed tail appended
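Note: lentivirally expressed fusions sorted by FACS into six bins by GFP to DsRed ratio, PSI derived from sequencing read proportions per bin multiplied by bin number.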

Protein stability index of substitutions, site by site:
D16: V 2.15 | W 2.37 | A 2.36 | T 2.29 | S 2.73 | M 1.77 | R 2.23 | Q 2.51 | I 2.17 | L 2.7 | H 2.35 | G 2.12 | C 1.73 | K 1.94 | E 2.72 | P 2.11 | N 2.27 | F 1.97 | Y 2.06
P19: N 2.84 | L 2.54 | A 2.67 | D 2.9 | C 2.52 | G 2.78 | M 2.21 | Q 2.7 | F 2.13 | K 2.71 | H 2.54 | E 3.29 | I 2.58 | T 2.32 | S 2.98 | R 2.41
S15: K 2.42 | W 2.44 | F 2.28 | A 2.61 | I 2.72 | H 3.05 | P 3.12 | E 3.14 | N 2.36 | Y 2.83 | Q 2.77 | M 2.2 | V 2.44 | R 2.55 | L 2.36 | D 3.06 | C 2.65 | T 2.8 | G 3.29
Q14: P 2.81 | T 3.35 | W 2.06 | H 2.59 | R 2.5 | G 2.52 | I 2.11 | D 2.84 | L 2.19 | C 2.3 | N 2.79 | A 2.55 | Y 1.91 | M 2.5 | F 1.8 | S 3.15 | E 3.26 | V 2.15 | K 2.39
N12: M 2.36 | V 2.87 | W 2.55 | E 2.57 | L 2.15 | Y 2.39 | D 3.69 | P 3.15 | I 2.27 | A 2.89 | S 3.25 | Q 2.57 | F 1.74 | T 2.72 | H 2.59 | R 2.52 | G 3.16 | K 2.65 | C 2.36
G13: N 2.94 | R 3.19 | L 2.39 | V 2.24 | T 2.74 | E 3.31 | K 2.15 | Q 3.2 | I 2.31 | M 2.81 | F 2.25 | S 2.46 | P 2.62 | W 2.56 | H 3.06 | D 3.19 | A 2.48 | Y 2.09 | C 1.97
N11: L 2.69 | M 2.81 | S 2.54 | W 2.51 | H 2.8 | Y 2.17 | D 3.29 | R 2.2 | F 2.23 | Q 2.46 | K 2.29 | C 2.17 | P 2.65 | I 2.39 | G 2.23 | V 4.07 | E 2.86 | T 2.7
F17: D 3.75 | M 3.06 | C 2.8 | L 2.75 | Y 2.69 | K 3.34 | E 3.67 | Q 3.42 | N 3.42 | T 3.31 | G 3.04 | S 3.15 | W 2.32 | I 3.38 | A 2.95 | P 3.45 | H 3.52 | R 3.06 | V 2.95
R18: Y 2.59 | P 2.83 | K 3.23 | H 2.45 | A 3.21 | F 2.6 | T 3.29 | M 2.67 | V 3.04 | S 3.05 | W 3.03 | I 2.61 | L 2.31 | E 3.27 | Q 2.99 | D 3.29 | N 2.87 | C 2.42 | G 2.33
